Measured values published in publication doi:10.1101/2022.03.29.486248 (bioRxiv, 2022).

Biological target: T1, SufB (subunit of the His6-SufBC2D complex, wild type) (Escherichia coli, UniProt P77522 1-495)
T1 sequence: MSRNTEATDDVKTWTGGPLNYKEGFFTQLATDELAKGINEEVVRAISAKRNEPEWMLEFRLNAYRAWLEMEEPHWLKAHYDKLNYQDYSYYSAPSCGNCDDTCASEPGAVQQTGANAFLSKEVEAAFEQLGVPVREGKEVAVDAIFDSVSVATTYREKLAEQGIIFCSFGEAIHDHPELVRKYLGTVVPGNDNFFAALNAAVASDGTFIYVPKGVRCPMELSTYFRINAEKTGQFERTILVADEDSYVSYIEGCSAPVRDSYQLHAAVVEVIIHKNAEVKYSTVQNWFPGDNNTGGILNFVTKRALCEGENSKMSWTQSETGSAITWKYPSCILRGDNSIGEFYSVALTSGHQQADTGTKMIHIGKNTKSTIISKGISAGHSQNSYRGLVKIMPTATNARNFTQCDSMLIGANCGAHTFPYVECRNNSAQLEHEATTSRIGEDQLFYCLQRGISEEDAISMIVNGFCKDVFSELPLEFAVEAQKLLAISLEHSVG
Assay: SEC-MALS

Binder	stoichiometry N
SufD (subunit of the SufBC2D complex, wild type) (natural protein, Escherichia coli) MAGLPNSSNALQQWHHLFEAEGTKRSPQAQQHLQQLLRTGLPTRKHENWKYTPLEGLINSQFVSIAGEISPQQRDALALTLDSVRLVFVDGRYVPALSDATEGSGYEVSINDDRQGLPDAIQAEVFLHLTESLAQSVTHIAVKRGQRPAKPLLLMHITQGVAGEEVNTAHYRHHLDLAEGAEATVIEHFVSLNDARHFTGARFTINVAANAHLQHIKLAFENPLSHHFAHNDLLLAEDATAFSHSFLLGGAVLRHNTSTQLNGENSTLRINSLAMPVKNEVCDTRTWLEHNKGFCNSRQLHKTIVSDKGRAVFNGLINVAQHAIKTDGQMTNNNLLMGKLAEVDTKPQLEIYADDVKCSHGATVGRIDDEQIFYLRSRGINQQDAQQMIIYAFAAELTEALRDEGLKQQVLARIGQRLPGGAR	1
SufC (subunit of the SufBC2D complex) (natural protein, Escherichia coli) MLSIKDLHVSVEDKAILRGLSLDVHPGEVHAIMGPNGSGKSTLSATLAGREDYEVTGGTVEFKGKDLLALSPEDRAGEGIFMAFQYPVEIPGVSNQFFLQTALNAVRSYRGQETLDRFDFQDLMEEKIALLKMPEDLLTRSVNVGFSGGEKKRNDILQMAVLEPELCILDESDSGLDIDALKVVADGVNSLRDGKRSFIIVTHYQRILDYIKPDYVHVLYQGRIVKSGDFTLVKQLEEQGYGWLTEQQ	2
